Article PMC7116876, “Mechanistic Insights into Regulation of the ALC1 Remodeler by the Nucleosome Acidic Patch” (Cell reports, 2020)

What was measured:
[1] = target: WT/WT nucleosome (Xenopus laevis histone octamer with intact acidic patches on Widom 601 DNA) (Xenopus laevis); assay: cryo-EM structure; biotinylated ALC1 linker peptide at 10-fold molar excess over core nucleosomes (no linker DNA), cross-linked with 0.05% glutaraldehyde, purified on monomeric avidin; 15 mM HEPES pH 7.5, 50 mM NaCl, 1 mM DTT
[2] = target: WT/WT nucleosome (Xenopus laevis histone octamer with intact acidic patches on Widom 601 DNA) (Xenopus laevis)
[3] = target: WT/WT nucleosome (Xenopus laevis histone octamer with intact acidic patches on Widom 601 DNA) (Xenopus laevis); remark: listed apart in the source
[4] = tested on: T1, ALC1RLS peptide-TAMRA (Homo sapiens); assay: fluorescence anisotropy; details: Fluorescence anisotropy: 15 mM HEPES pH 7.5, 1 mM EDTA, 5% glycerol, 1 mM DTT, 10 nM peptide, 30 C
T1 sequence: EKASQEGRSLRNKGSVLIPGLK

[5] = target: ALC1^RLS peptide-TAMRA (human); assay: fluorescence polarisation; fluorescence anisotropy; 10 nM TAMRA-labelled peptide, nucleosomes without linker DNA titrated; 30°C; 15 mM HEPES pH 7.5, 1 mM EDTA, 5% glycerol, 1 mM DTT; quadratic fit

## ALC1 linker peptide-Biotin
[1]
  stoichiometry N (peptides per nucleosome): 2

## ALC1^fl R611A/S612A/R860W (human ALC1 16-879) (from UniProt Q86WJ1 16-879) (enzyme)
[2]
  smFRET, average translocation pause duration on WT/WT nucleosomes with 3 bp of linker DNA; fold increase against ALC1^fl R860W: > 4 fold
[3]
  Michaelis constant of remodeling of WT/WT nucleosomes (10 nM); factor of increase against ALC1^fl R860W: 5.3 fold
  maximum rate of remodeling of WT/WT nucleosomes (10 nM); factor of decrease against ALC1^fl R860W: 6.4 fold
  nucleosome-stimulated ATPase rate under saturating conditions (Vmax estimated); fold reduction against ALC1^fl R860W: 2 fold
  nucleosome-stimulated ATPase rate, 20 μM remodeler, 2 μM WT/WT nucleosomes; fold reduction against ALC1^fl R860W: 2.5 fold

## WT/WT nucleosome 0-601-0
[4]
  Kd: 1.1 µM

## WT/WT nucleosome (Xenopus laevis histone octamer with intact acidic patches on Widom 601 DNA) (complex)
[5]
  Kd: 1.1 µM
